Measured values as given in patent US20130209439A1, “INHIBITORS OF PDE4 BINDING TO HSP20” (THE UNIVERSITY COURT OF THE UNIVERSITY OF GLASGOW, priority 2010, published 2013).

Tested on: pS16-Hsp20 in SH-SY5Y cells
Assay: Cell based Hsp20-PDE4D disruptor assay, nucleofected SH-SY5Y cells, pS16-Hsp20 Western blot
Design: species or system human
Details: SH-SY5Y cells nucleofected with 500 μM peptide, 2 hours
Experimental: FIG. 9. Disrupter induced HSP20 phosphorylation SH-SY5Y cells nucleofected with 500 μM of each peptide and incubated for 2 hours prior to harvesting. Each assay was blotted for Hsp20, pS16-Hsp20 and tubulin. Changes in levels of phospho-Hsp20 relative to DMSO only controls were quantified through densitometry analysis and each assay was normalised to α-tubulin loading control. The results are the average of three separate experiments and error bars represent SEM. *=p<0.05, **=p<0.01 compared to DMSO only controls (Student-T-test)
SDS-PAGE analysis was done on NuPage® pre-cast gels X-cell apparatus (Invitrogen, Paisley) using MES-SDS running buffer, Samples were reduced in Laemmli 2× loading buffer (4% SOS) with 5% β-mercaptoethanol. For Western Blotting (WB) analysis, samples were transferred using NuPage® X-cell blotting module onto a nitrocellulose membrane. Membranes were blocked using 5% Milk in 1×TBST (w/v). Antibodies were incubated in 1% milk in 1×TBST (w/v) for either 1 hour at room temperature or overnight at 4° C. Signals were detected using enhanced chemiluminescence system (Pierce) and developed on an X-omat film developer. Subsequent densitometry analysis was carried out using Quantity One (Bio-Rad).
SH-SY5Y cells (ATCC-CRL-2266) were grown in Dulbecco's Modified Eagle's Medium (DMEM) and F12-Ham's at a 1:1 ratio, media was supplemented with 10% (v/v) fetal bovine serum (FBS), 1% (v/v) L-Glutamine, 1% (v/v) Minimum Essential Medium—With Non-essential Amino Acids (MEM-NAA) and 1% (v/v) Pen/strep. Cells were cultured in a humidified, 5% (v/v) CO2, 37° C. incubator.
SH-SY5Y cells were nucleofected using Cell Line Nucleofector® Kit-V in accordance with manufacturers protocol (Amaxa Biosystems). Setting A-23 on the Nucleofector I device was used which increases cell viability. For each assay, 500 μM of disrupter peptide was incubated with 100 μl of nucleofection solution containing approximately 2×10^6 cells. After nucleofection cells were re-suspended in 500 μl of culture media before being transferred to a 6 well plate with a final volume of 2 ml per well. Cells were incubated for 2 hours prior to harvesting with […] containing protease and phosphatase inhibitors (Roche).
As the cell permeability of the peptides is unknown we used an electroporation technique to introduce the peptides into the SH-SY5Y cells. The Amaxa cell-line specific Nucleofector Kit V (Lonza) was used to transfect the peptides into the cells. […] Each assay used a final concentration of 500 μM of peptide in nucleofector solution containing approximately 2×10^6 SH-SY5Y cells. As peptides were dissolved in 100% DMSO, control transfections with DMSO only were used to compare any changes in phospho-Hsp20 levels. After each transfection the solution was reconstituted in culture media and incubated for 2 hours to allow for cell adhesion prior to the harvesting of viable cells.

| Molecule | pS16-Hsp20 levels relative to DMSO only controls |
| --- | --- |
| Ac-YQNLTK-NH2 [Peptide 3] | no effect on phosphorylation levels |
| Ac-GFKLL-NH2 [Peptide 11] | indistinguishable from DMSO only controls |
| Ac-KFKLL-NH2 [Peptide 13] | induced an average increase when compared with DMSO only controls |
| Ac-FKLLQ-NH2 [Peptide 9] | indistinguishable from DMSO only controls |
| Ac-GFRLL-NH2 [Peptide 12] | induced an average increase when compared with DMSO only controls |
| Ac-FQNLTK-NH2 [Peptide 6] | significant increase in pS16-Hsp20 levels |
| Ac-GFALL-NH2 [Peptide 16] | average value similar to the DMSO only controls |
| Ac-LTK-NH2 (Ac-Leu-Thr-Lys-NH2) [Peptide 7] | significant increase in pS16-Hsp20 levels |

Tested on: Phospho-Ser16 HSP20 in neonatal cardiac myocytes
Assay: Ser16 phosphorylation of endogenous HSP20 in neonatal cardiac myocytes (Western blot)
Format: cell-based, rat
Details: cardiomyocytes, stimulated with isoproterenol alone or with PKA inhibitor pre-treatment; data not shown
Experimental: FIG. 2. The phosphorylation of HSP20 at Ser16 is modulated by PDE4 activity in cardiac myocytes. A, Neonatal cardiac myocytes were treated with isoprenaline for indicated times with or without pre-treatment with the PDE4-specific inhibitor, rolipram. Cellular lysates were blotted for HSP20 and Phospho-Ser16 HSP20. B, Quantifications of data from FIG. 2A (n=3). * Denotes significance at a level p<0.05 over iso treatment.
(§1) HEK293B2 cells are a stable cell line overexpressing the GFP-tagged β2AR were cultured as previously described^48. HEK293B2 cells were transiently transfected with wild type HSP20 or a phosphorylation defective HSP20 (S16A) or a phosphorylation mimic HSP20 (S16D). Neonatal cardiac myocytes were prepared and cultured as previously described^30. Cell lysis, immunopurification and western blotting was done as described before by us in some detail^48. Briefly, HEK 293 cells were transiently transfected with wild-type HSP20 by using Polyfect Transfection Reagent (Qiagen). Transfected HEK 293 cells were treated with 10 μM bs906 or 10 μM control peptide for 0, 15, 30, 60 and 120 min. Control and treated transfected HEK 293 cells were then washed thrice with ice cold PBS (phosphate buffered saline) before cellular lysates were prepared. Cellular lysates were prepared in lysis buffer containing 25 mM Hepes, pH 7.5, 2.5 mM EDTA, 50 mM NaCl, 50 mM NaF, […], 10% (v/v) glycerol, 1% (v/v) Triton X-100 and Complete™ EDTA-free protease inhibitor cocktail tablets (Roche). Protein concentration of lysates were determined using the Bradford assay and all samples were equalised for protein concentration. Proteins were separated by SOS/PAGE (4-12% Bis-Tris gels) and transferred onto nitrocellulose membranes for Western blotting. Antibodies were used to detect phospho-proteins and native proteins in lysates from control and treated cells
To determine whether inhibition of PDE4 activity had similar effects on endogenous phospho-HSP20 levels in heart cells, similar experiments were undertaken using neonatal cardiomyocytes (FIG. 2).

| Molecule | HSP20 phosphorylation after PKA inhibitor pre-treatment |
| --- | --- |
| O=S(=O)(NCCNC/C=C/c1ccc(Br)cc1)c1cccc2cnccc12 [Peptide H89, H89] | markedly attenuated HSP20 phosphorylation |
| CCCCCCOC(=O)[C@]1(O)C[C@@H]2O[C@@]1(C)n1c3ccccc3c3c4c(c5c6ccccc6n2c5c31)C(=O)NC4 [KT5720] | markedly attenuated HSP20 phosphorylation |

Tested on: Phospho-Ser16 HSP20 in HEKB2 cells
Assay: Ser16 phosphorylation of HSP20 in HEKB2 cells overexpressing HSP20 (Western blot)
Format: cell-based
Details: HEKB2 cells, stimulated with isoproterenol alone; data not shown
Experimental: FIG. 1. The phosphorylation of HSP20 at Ser16 is modulated by PDE4 activity in HEKB2 cells. A, HEKB2 cells overexpressing HSP20 or HSP20 ser16-Ala mutant were treated with isoprenaline for indicated times. Cellular lysates were blotted for HSP20 and Phospho-Ser16 HSP20. B, HEKB2 cells overexpressing HSP20 were treated with isoprenaline for indicated times, Cellular lysates were blotted for HSP20 and Phospho-Ser16 HSP20. C, HEKB2 cells overexpressing HSP20 were treated with isoprenaline for indicated times following pre-treatment with the PDE4-specific inhibitor, rolipram. Cellular lysates were blotted for HSP20 and Phospho-Ser16 HSP20. D, Quantifications of data from FIGS. 1B and 1C (n=4). * Denotes significance at a level p<0.05 E, Lysate from untransfected HEKB2 cells was blotted for HSP20 and Phospho-Ser16 HSP20.
as §1
In contrast to this, when we transfected these cells with a phospho-null mutant form, Ser16Ala-Hsp20, then no such change was observed (FIG. 1A). In order to evaluate whether PDE4 activity played a role in regulating this phosphorylation process in Hsp20-transfected HEKB2 cells, cells that had either been pre-treated or not with the PDE4 selective inhibitor rolipram were subsequently challenged with isoprenaline (1 μM) (FIGS. 1B and C). […] Endogenous levels of phospho-HSP20 or HSP20 were not detectable in HEKB2 cells (FIG. 1E).

| Molecule | HSP20 phosphorylation after PKA inhibitor pre-treatment |
| --- | --- |
| O=S(=O)(NCCNC/C=C/c1ccc(Br)cc1)c1cccc2cnccc12 [Peptide H89, H89] | markedly attenuated HSP20 phosphorylation |
| CCCCCCOC(=O)[C@]1(O)C[C@@H]2O[C@@]1(C)n1c3ccccc3c3c4c(c5c6ccccc6n2c5c31)C(=O)NC4 [KT5720] | markedly attenuated HSP20 phosphorylation |

Biological target: T1, His-HSP20 (purified recombinant His-tagged HSP20) (human, UniProt O14558 1-160)
T1 construct: Expressed in E. coli BL21 from pET28c and purified on nickel; also called HSP20-His; HSP20-6His; not shown: His tag from the pET28c vector
T1 sequence: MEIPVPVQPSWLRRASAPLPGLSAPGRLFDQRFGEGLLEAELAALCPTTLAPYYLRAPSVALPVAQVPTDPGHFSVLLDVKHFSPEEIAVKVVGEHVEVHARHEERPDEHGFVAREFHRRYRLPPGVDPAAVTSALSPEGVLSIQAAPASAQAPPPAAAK
Assay: PDE4D5 peptide array overlaid with HSP20-6His
Details: not given
From the text: PDE4 isoform localisation invariably depends on protein-protein interactions, with PDE4s shown to associate with a diverse group of interacting partners such as RACK1^{32, 36}, βarrestin³⁶, β₁-Ar³⁷, DISC1³⁸, the p75 neurotrophin receptor³⁹ and the cardiac IKs potassium channel⁴⁰. […] Dark spots represent positive areas of HSP20 interaction whereas clear spots are negative for the association (FIG. 4A).

| Molecule | binding result |
| --- | --- |
| VLENHHLAVGFKLLQEENCDIFQNL (peptides 93 to 96 span Y461-K500; SPOT-immobilised; also called spot 94) [25mer peptide 94 of the PDE4D5 peptide array] | binds |
| FKLLQEENCDIFQNLTKKQRQSLRK (peptides 93 to 96 span Y461-K500; SPOT-immobilised; also called spot 96) [25mer peptide 96 of the PDE4D5 peptide array] | binds |
| HLAVGFKLLQEENCDIFQNLTKKQR (peptides 93 to 96 span Y461-K500; SPOT-immobilised; also called spot 95) [25mer peptide 95 of the PDE4D5 peptide array] | binds |
| YNDSSVLENHHLAVGFKLLQEENCD (peptides 93 to 96 span Y461-K500; SPOT-immobilised; also called spot 93) [25mer peptide 93 of the PDE4D5 peptide array] | binds |

Biological target: T1, His-HSP20 (purified recombinant …)
Assay: SPOT peptide array overlaid with purified His-Hsp20
Details: not given
Experimental: A variety of peptides were generated and SPOT-synthesised onto slides which were then overlaid with 10 μg/ml of purified His-Hsp20. Interaction with peptides and Hsp20 was evaluated by probing slides with anti-His or Hsp20 antibodies and analysed using enhanced chemi-luminescence techniques, Negative controls used anti-His antibody only with no overlay of His-Hsp20 protein (data not shown).

| Molecule | binding result |
| --- | --- |
| Ac-FQNLTK-NH2 (On the array SPOT-synthesised on a slide; also called peptide No 6) [Ac-FQNLTK-NH2] | binds |
| Ac-YQNLTK-NH2 (On the array the peptide was SPOT-synthesised on a slide; the soluble form Ac-...-NH2 was made 'to resemble SPOT synthesised peptides'; also called peptide No 3) [Ac-YQNLTK-NH2] | binds |
| Ac-FQNLTA-NH2 (Negative control; On the array SPOT-synthesised on a slide; also called peptide No 4) [Ac-FQNLTA-NH2] | no binding (tested: 10 ug/ml His-Hsp20 overlay) |
| Ac-FQNLTR-NH2 (On the array SPOT-synthesised on a slide; also called peptide No 5) [Ac-FQNLTR-NH2] | binds |
| Ac-FKLLQ-NH2 (On the array SPOT-synthesised on a slide; also called peptide No 9) [Ac-FKLLQ-NH2] | binds |
| Ac-GFKLL-NH2 (On the array SPOT-synthesised on a slide; also called peptide No 11) [Ac-GFKLL-NH2] | binds |
| Ac-KFKLL-NH2 (On the array SPOT-synthesised on a slide; also called peptide No 13) [Ac-KFKLL-NH2] | binds |
| Ac-RFKLL-NH2 (On the array SPOT-synthesised on a slide; also called peptide No 14) [Ac-RFKLL-NH2] | binds |
| Ac-GFRLL-NH2 (On the array SPOT-synthesised on a slide; also called peptide No 12) [Ac-GFRLL-NH2] | binds |
| Ac-GFALL-NH2 (Negative control; On the array SPOT-synthesised on a slide; also called peptide No 16) [Ac-GFALL-NH2] | no binding (tested: 10 ug/ml His-Hsp20 overlay) |
